Test results from US20050265970A1 (UNIVERSITY OF CHICAGO, published 2005).

How the values were obtained:
[1] = molecular target: T1, HA-MEKK4 (full-length murine, in 293 cells) (murine, UniProt O08648 1-1597, limits assumed); experiment: co-IP from 293 cells
T1 construct: also called MEKK4/MTK1; not shown: HA tag

[2] = molecular target: T2, HA-GCK (full-length human, in 293 cells) (human, UniProt Q12851 1-820); experiment: combined immunoprecipitation and Western blot, 293 cells
T2 construct: not shown: HA tag
T2 sequence (looked up): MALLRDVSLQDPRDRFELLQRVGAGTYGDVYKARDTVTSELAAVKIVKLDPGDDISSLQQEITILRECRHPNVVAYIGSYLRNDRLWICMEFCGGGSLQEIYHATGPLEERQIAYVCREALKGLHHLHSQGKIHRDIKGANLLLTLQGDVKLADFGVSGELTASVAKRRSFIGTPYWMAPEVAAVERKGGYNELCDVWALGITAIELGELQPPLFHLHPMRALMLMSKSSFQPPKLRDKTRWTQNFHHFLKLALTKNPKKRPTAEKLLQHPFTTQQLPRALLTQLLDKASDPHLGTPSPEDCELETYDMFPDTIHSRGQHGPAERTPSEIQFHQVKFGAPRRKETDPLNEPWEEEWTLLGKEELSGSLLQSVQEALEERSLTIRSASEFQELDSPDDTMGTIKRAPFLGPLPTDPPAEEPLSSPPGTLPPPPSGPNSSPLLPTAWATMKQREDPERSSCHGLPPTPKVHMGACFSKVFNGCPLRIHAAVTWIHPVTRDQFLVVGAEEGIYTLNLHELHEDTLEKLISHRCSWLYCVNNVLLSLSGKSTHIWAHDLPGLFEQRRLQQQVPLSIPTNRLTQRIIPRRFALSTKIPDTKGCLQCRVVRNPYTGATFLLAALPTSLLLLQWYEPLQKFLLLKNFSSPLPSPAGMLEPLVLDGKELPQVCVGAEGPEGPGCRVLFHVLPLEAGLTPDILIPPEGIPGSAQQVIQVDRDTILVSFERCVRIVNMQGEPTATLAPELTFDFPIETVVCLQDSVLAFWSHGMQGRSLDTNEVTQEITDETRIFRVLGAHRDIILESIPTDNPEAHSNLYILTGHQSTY

[3] = molecular target: T3, HA-GCKR (full-length human, in 293 cells) (human, UniProt Q9Y4K4 1-846); experiment: as above
T3 construct: not shown: HA tag

[4] = molecular target: T4, HA-MEKK1 (full-length human, in 293 cells) (human, UniProt Q13233 1-1512, limits assumed); experiment: co-IP from 293 cells, anti-FLAG beads, anti-HA Western blot
T4 construct: not shown: HA tag

[5] = molecular target: T5, HA-MEKK3 (full-length human, in 293 cells) (human, UniProt Q99759 1-626, limits assumed); experiment: as above
T5 construct: not shown: HA tag
T5 sequence (looked up): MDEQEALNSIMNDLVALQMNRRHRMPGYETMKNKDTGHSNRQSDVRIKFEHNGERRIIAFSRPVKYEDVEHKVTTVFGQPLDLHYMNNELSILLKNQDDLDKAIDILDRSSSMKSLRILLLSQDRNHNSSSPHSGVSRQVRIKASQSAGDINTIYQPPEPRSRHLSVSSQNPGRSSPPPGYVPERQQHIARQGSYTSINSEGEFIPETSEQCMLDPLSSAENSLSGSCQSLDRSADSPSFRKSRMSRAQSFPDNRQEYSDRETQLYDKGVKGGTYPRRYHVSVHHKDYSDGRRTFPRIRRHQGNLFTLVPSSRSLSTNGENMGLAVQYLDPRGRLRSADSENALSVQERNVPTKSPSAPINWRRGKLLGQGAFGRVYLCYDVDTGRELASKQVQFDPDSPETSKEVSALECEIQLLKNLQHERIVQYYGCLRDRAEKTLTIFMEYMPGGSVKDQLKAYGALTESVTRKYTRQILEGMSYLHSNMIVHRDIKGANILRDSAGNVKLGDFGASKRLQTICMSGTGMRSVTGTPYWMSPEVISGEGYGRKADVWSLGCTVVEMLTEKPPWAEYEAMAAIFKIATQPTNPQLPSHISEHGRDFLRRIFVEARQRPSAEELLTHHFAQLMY

[6] = molecular target: T6, HA-ASK1 (full-length human, in 293 cells) (human, UniProt Q99683 1-1374); experiment: as above
T6 construct: not shown: HA tag
T6 sequence (looked up): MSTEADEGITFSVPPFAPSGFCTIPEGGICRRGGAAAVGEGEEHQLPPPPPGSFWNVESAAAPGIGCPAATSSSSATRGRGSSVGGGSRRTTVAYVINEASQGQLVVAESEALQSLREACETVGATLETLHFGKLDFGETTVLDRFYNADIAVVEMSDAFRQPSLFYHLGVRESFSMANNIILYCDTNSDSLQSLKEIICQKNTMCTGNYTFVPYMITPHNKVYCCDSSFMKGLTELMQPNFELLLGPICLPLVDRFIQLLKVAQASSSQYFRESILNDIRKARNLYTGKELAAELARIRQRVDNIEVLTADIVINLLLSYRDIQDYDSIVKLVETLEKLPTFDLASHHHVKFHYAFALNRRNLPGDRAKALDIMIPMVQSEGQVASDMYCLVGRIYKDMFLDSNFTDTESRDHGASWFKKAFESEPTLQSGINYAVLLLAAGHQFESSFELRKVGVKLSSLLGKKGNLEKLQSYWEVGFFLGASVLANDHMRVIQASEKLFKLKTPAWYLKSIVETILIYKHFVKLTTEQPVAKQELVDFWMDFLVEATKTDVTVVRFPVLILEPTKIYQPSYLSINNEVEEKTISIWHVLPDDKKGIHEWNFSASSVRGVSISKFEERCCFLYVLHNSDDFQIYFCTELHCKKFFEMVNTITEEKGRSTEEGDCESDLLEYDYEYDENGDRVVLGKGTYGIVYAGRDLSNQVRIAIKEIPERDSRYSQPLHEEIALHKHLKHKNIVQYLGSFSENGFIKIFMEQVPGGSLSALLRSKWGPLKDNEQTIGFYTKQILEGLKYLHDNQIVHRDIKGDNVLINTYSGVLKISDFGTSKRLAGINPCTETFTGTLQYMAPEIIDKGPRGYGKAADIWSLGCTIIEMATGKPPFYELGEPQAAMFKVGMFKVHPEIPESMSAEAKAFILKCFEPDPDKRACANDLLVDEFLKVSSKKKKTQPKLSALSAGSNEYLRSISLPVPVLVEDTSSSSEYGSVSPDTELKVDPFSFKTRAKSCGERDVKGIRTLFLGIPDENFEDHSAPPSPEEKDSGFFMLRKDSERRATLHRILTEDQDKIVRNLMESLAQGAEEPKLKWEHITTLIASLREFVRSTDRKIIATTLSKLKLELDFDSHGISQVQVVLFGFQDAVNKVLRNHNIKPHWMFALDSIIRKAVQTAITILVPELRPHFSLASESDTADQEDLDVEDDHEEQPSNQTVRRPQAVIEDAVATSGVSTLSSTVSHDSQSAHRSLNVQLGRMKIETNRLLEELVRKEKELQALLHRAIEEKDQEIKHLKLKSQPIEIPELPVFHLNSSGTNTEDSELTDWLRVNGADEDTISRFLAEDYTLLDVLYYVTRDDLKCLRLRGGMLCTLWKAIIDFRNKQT

T3 sequence (Q9Y4K4 whole entry): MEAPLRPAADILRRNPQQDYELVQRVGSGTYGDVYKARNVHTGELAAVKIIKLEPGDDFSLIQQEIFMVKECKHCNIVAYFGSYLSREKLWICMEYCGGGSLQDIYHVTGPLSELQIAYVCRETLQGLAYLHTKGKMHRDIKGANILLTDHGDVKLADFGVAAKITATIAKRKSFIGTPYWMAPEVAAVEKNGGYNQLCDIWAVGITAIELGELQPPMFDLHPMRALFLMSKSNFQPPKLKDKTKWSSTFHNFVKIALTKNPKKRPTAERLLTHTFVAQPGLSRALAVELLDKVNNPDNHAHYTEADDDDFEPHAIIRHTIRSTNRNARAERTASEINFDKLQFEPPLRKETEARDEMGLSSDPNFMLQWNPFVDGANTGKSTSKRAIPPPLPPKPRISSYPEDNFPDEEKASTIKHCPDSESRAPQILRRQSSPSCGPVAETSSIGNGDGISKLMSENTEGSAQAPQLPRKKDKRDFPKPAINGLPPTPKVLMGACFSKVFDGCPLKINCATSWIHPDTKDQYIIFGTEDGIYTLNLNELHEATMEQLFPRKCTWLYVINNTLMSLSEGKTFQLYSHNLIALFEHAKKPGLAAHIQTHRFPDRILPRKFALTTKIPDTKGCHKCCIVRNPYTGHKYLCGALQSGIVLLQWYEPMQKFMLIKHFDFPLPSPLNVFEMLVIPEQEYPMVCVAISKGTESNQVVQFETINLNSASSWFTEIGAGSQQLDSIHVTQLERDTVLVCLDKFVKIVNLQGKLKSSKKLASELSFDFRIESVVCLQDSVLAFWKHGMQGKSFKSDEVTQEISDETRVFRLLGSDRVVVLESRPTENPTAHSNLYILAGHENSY
T1 sequence (O08648 whole entry): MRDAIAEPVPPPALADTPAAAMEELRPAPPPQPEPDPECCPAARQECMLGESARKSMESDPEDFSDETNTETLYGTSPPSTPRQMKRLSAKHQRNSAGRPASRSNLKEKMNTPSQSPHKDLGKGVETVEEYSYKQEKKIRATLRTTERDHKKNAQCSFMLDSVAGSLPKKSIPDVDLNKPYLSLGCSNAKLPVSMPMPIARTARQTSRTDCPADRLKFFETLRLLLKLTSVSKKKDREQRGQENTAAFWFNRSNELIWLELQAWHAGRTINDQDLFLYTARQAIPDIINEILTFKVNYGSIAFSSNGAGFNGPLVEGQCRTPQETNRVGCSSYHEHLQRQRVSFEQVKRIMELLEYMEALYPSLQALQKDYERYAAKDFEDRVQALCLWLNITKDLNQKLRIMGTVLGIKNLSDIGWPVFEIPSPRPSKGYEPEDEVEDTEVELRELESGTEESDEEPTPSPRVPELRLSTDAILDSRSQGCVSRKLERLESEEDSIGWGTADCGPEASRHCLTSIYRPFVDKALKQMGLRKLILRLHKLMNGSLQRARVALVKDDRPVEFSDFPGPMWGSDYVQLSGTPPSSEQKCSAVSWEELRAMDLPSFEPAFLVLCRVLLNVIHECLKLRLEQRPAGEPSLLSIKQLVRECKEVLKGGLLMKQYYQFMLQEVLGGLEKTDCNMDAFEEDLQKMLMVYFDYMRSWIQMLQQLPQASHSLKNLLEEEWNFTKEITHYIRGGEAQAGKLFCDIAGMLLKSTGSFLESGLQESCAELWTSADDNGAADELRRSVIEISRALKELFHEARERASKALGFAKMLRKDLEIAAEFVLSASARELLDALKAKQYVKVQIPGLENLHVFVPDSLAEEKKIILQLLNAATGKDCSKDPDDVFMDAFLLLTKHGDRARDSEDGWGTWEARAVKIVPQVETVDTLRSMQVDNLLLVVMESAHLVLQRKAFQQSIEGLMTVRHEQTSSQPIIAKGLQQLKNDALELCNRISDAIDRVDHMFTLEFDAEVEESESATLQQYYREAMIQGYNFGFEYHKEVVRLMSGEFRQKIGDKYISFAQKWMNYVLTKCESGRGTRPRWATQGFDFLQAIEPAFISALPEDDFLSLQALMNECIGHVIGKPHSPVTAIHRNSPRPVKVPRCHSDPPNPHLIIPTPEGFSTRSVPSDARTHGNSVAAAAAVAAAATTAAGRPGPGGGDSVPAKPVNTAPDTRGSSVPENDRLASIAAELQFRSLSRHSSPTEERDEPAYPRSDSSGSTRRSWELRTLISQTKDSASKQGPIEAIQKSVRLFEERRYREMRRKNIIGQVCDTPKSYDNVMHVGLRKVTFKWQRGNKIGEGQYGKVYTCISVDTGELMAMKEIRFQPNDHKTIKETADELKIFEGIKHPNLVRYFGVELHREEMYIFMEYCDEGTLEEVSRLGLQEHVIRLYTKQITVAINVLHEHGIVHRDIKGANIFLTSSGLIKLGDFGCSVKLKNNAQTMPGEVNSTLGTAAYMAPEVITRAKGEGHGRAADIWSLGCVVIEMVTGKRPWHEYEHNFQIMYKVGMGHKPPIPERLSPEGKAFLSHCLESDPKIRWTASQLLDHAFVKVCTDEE
T4 sequence (Q13233 whole entry): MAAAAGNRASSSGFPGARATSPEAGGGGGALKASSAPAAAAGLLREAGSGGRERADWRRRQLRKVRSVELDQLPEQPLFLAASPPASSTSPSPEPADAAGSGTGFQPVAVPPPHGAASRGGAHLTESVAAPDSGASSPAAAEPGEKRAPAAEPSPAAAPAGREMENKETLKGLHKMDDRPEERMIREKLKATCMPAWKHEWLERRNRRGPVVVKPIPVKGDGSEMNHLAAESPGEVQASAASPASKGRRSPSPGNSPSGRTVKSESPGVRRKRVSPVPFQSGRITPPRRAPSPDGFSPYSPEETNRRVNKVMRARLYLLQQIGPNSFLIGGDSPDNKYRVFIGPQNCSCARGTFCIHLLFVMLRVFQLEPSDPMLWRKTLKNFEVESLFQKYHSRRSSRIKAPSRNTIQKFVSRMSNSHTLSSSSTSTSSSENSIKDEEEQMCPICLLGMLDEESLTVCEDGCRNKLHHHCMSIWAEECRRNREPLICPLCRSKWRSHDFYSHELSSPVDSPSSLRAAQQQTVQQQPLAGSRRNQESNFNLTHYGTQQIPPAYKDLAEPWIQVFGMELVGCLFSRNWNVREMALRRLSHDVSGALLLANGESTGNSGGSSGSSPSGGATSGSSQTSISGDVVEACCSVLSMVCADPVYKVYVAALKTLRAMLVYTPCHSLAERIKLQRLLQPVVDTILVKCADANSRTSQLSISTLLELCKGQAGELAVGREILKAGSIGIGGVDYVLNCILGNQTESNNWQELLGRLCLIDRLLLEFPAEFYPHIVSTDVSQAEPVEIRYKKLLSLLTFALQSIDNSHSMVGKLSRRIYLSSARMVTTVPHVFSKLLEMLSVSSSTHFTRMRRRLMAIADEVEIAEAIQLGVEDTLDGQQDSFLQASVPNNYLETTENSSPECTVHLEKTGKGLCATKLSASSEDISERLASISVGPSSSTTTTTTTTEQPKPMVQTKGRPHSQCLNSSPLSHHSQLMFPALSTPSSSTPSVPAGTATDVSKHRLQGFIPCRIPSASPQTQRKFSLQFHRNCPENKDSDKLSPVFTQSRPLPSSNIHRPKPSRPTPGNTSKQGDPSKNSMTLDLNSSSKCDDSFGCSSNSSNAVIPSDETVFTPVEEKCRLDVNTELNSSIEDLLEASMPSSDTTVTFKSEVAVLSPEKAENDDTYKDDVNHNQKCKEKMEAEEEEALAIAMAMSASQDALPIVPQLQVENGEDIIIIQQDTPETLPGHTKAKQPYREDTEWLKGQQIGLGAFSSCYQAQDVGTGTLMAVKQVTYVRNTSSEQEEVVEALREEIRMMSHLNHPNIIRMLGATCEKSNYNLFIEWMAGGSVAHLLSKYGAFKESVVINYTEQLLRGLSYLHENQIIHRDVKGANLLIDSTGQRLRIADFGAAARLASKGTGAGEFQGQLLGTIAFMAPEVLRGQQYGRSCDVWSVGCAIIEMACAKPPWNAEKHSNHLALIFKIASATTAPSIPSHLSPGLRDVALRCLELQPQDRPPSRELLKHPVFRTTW

binding result [1]: binds
binding result [2]: no binding
binding result [3]: no binding
binding result [4]: no binding
binding result [5]: no binding
binding result [6]: binds
B1: FLAG-Gadd45β (full-length murine Gadd45β, pcDNA-FLAG-Gadd45β, expressed in 293 cells) (other, UniProt P22339 1-160, looked up)
chain: MTLEELVASDNAVQKMQAVTAAVEQLLVAAQRQDRLTVGVYEAAKLMNVDPDSVVLCLLAIDEEEEDDIALQIHFTLIQSFCCDNDIDIVRVSGMQRLAQLLGEPAETLGTTEARDLHCLLVTNCHTDSWKSQGLVEVASYCEESRGNNQWVPYISLEER
notes: range 1-160; Co-expressed with HA-tagged kinases in 293 cells for co-immunoprecipitation; not shown: FLAG tag
